The source of these data is PMC3785227.

What is called Kd is the equilibrium constant for the complex coming apart.

The experiment deals with stripped core gp120 (HIV strain YU2), displayed on yeast (HIV-1 strain YU2). Kind of experiment: flow cytometry on cells.

“b12, broadly neutralizing anti-gp120 antibody against the CD4 binding site” gave a Kd of 0.041 nM.
Substance “b13, non-neutralizing CD4 binding site-directed anti-gp120 antibody” registered a Kd of 0.9 nM.
